Where two headings read alike, the source gives them in different places.

The target in test [1] is T1, mouse MAdCAM expressed on cells (mouse, UniProt Q61826 22-405).
T1 construct: whole, on cells
T1 sequence (looked up): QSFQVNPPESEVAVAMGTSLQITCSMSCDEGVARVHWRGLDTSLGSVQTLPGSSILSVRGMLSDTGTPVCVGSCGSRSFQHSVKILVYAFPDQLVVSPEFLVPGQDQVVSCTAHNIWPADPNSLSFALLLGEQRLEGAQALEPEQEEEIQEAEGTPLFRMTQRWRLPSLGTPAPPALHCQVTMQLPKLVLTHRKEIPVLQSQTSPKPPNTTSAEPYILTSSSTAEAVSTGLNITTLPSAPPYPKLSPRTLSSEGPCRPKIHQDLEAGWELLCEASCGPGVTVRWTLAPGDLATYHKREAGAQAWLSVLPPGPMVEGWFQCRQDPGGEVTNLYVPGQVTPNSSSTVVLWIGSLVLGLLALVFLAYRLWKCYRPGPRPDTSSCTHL
The test can be described thus: cell binding.

The target in test [2] is T2, human MAdCAM expressed on cells (human, UniProt Q13477 19-382).
T2 construct: whole, on cells
T2 sequence (looked up): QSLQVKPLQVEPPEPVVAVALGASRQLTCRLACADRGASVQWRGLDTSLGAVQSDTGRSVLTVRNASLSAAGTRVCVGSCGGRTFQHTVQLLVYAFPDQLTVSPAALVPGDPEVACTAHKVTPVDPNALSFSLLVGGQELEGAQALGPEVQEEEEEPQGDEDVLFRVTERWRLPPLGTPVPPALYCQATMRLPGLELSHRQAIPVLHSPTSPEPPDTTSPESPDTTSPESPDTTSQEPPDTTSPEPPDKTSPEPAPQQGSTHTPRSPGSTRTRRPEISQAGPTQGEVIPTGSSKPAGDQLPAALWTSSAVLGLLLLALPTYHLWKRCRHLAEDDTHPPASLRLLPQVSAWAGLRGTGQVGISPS
Description: cell binding.

Test [3] concerns the target T3, recombinant mouse MAdCAM-1 (mouse, UniProt Q61826 22-364, limits assumed).
T3 construct: also called mMAdCAM-1
T3 sequence (looked up): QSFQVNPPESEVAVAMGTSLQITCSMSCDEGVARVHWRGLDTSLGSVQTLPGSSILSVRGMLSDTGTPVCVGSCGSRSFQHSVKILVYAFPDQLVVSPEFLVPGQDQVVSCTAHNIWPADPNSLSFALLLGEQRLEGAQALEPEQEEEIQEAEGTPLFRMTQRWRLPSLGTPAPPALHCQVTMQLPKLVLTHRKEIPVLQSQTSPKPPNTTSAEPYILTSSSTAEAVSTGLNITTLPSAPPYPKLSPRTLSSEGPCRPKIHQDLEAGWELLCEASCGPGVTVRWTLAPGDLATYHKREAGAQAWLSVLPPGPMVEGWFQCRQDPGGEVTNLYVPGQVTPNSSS
The test can be described thus: Octet. (BLI is a label-free optical method that tracks binding on a fibre tip over time.)

Test [4] addresses T4, human MAdCAM protein (human, UniProt Q13477 19-317, limits assumed).
T4 construct: also called soluble monomeric human MAdCAM; recombinant human MAdCAM
T4 sequence (looked up): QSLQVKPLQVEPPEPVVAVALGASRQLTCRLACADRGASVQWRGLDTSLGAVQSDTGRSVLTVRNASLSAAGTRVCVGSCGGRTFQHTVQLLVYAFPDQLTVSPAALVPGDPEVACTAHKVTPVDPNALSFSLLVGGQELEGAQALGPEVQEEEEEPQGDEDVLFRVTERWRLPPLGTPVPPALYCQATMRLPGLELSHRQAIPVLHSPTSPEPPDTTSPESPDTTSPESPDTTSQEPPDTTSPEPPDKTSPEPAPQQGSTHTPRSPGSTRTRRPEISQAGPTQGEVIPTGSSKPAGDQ
Description: Octet.

For test [5], the target named is T4, human MAdCAM protein. Description: Octet. The source holds these as a separate data set.
Test [6] addresses T1, mouse MAdCAM expressed on cells. The test can be described thus: cell binding. This is another data set of the same source.
For test [7], the target named is T2, human MAdCAM expressed on cells. The test can be described thus: cell binding. This is another data set of the same source.

B1: MAdCAM Antibody Table 2 clone 22 (antibody, V domains shown)
VH: EVQLLESGGGLVQPGGSLRLSCAASGFTFDDYAMHWVRQAPGKGLEWVSGISWNSGSIGYADSVKGRFTISRDNSKNTLYLQMNSLRAEDTAVYYCAKDIVAAGHYYYGMDVWGQGTTVTVSS
VL: DIQMTQSPSSLSASVGDRVTITCQASQDISNYLNWYQQKPGKAPKLLIYDASNLETGVPSRFSGSGSGTDFTLTISSLQPEDFATYYCQQSYSTPLTFGGGTKVEIK
notes: IgG format
Take B1: the binding result was “no binding” in test [1], “binds” in test [2], “no binding” in test [3] and “binds” in test [4].

B2: MAdCAM Antibody Table 2 clone 23 (antibody, V domains shown)
VH: EVQLLESGGGLVQPGGSLRLSCAASGFTFDDYAMHWVRQAPGKGLEWVSYIDTSSSHLYYADSVKGRFTISRDNSKNTLYLQMNSLRAEDTAVYYCARDEAAAGYYGMDVWGQGTTVTVSS
VL: DIQMTQSPSSLSASVGDRVTITCQAGQDISNYLNWYQQKPGKAPKLLIYDASNLETGVPSRFSGSGSGTDFTLTISSLQPEDFATYYCQQTYSTPITFGQGTKLEIK
notes: IgG format
As for B2, the binding result in test [1] was “no binding”; in test [2] it was “binds”; in test [3], “no binding”; in test [4], “binds”.

B3: MAdCAM Antibody Table 2 clone 65 (antibody, V domains shown)
VH: QVQLVQSGAEVKKPGASVKVSCKASGYTFTSYDINWVRQAPGQGLEWMGWMNPNSGNTGYAQKFQGRVTMTRDTSTSTVYMELSSLRSEDTAVYYCAKDSDYSNLLWDYWGQGTLVTVSS
VL: DIQMTQSPSSLSASVGDRVTITCRASQDITNDLGWYQQKPGKAPKLLIYQASSLESGVPSRFSGSGSGTDFTLTISSLQPEDFATYYCQQSYTIPLTFGQGTKVEIK
notes: IgG format
Consider B3, for which the binding result in test [1] is on record as “no binding”; in test [2] it was “binds”; in test [3] it was “no binding”; in test [4], “binds”.

B4: MAdCAM Antibody Table 2 clone 17 (antibody, V domains shown)
VH: QVQLVQSGAEVKKPGSSVKVSCKASGYTFTDYHIHWVRQAPGQGLEWMGGIVPRSGSTTYAQKFQGRVTITADESTSTAYMELSSLRSEDTAVYYCAKDESSGWYYFDYWGQGTLVTVSS
VL: DIVMTQSPLSLPVTPGEPASISCRSSQSLLHSNGYNYLDWYLQKPGQSPQLLIYSAYNRASGVPDRFSGSGSGTDFTLKISRVEAEDVGVYYCMQALQTPLTFGQGTKVEIK
notes: IgG format
Regarding B4, the binding result in test [1] is “no binding”; in test [2], “binds”; in test [3] it was “no binding”; in test [4] it was “binds”.

B5: MAdCAM antibody Table 1 clone 64 (scFv)
scFv: EVQLLESGGGLVKPGGSLRLSCAASGFAFSSHWMHWVRQAPGKGLEWVAGTSGSGESRDYADFVKGRFTISRDDSKNTLYLQMNSLKTEDTAVYYCARETYYYYYMDVWGKGTTVTVSSGGGGSGGGGSGGGGSGGGGSDIQMTQSPSSLSASVGDRVTITCRASQGISNYLAWYQQKPGKAPKLLIYDAANLEGGVPSRFSGSGSGTDFTLTISSLQPEDFATYYCQQSDIFPPTFGQGTKVEIK
On to B5, for which the binding result in test [5], in test [6] and in test [7] was “binds” in each case.

B6: MAdCAM Antibody Table 2 clone 20 (antibody, V domains shown)
VH: EVQLLESGGGLVQPGGSLRLSCAASGFTFSDSAMHWVRQAPGKGLEWVSAISGSGSTIYYADSVKGRFTISRDNSKNTLYLQMNSLRAEDTAVYYCVSDIAVAGHWYFDLWGRGTLVTVSS
VL: DIQMTQSPSSLSASVGDRVTITCRASQSISTFLNWYQQKPGKAPKLLIYAASRLEGGVPSRFSGSGSGTDFTLTISSLQPEDFATYYCQQANSFPLTFGPGTKVDIK
notes: IgG format
As to B6, the binding result in test [1] is listed as “no binding”; in test [2], “binds”; in test [3], “no binding”; in test [4], “binds”.

B7: MAdCAM Antibody Table 2 clone 79 (antibody, V domains shown)
VH: EVQLLESGGGLVKPGGSLRLSCAASGFTFDDYAMHWVRQAPGKGLEWVASITSSSAFIDYAASVKGRFTISRDDSKNTLYLQMNSLKTEDTAVYYCARERVDWNSYFDLWGRGTLVTVSS
VL: EIVMTQSPATLSVSPGERATLSCRASQGISNSYLAWYQQKPGQAPRLLIYGASTRATGIPARFSGSGSGTEFTLTISSLQSEDFAVYYCQQYYTYPPTFGPGTKVDIK
notes: IgG format
As for B7, the binding result in test [1], in test [2], in test [3] and in test [4] was “binds” each time.

B8: MAdCAM antibody Table 1 clone 61 (scFv)
scFv: EVQLLESGGGLVQPGGSLRLSCAASEFTFSNAWMSWVRQAPGKGLEWVASISSTSAYIDYADSVKGRFTISRDNSKNTLYLQMNSLRAEDTAVYYCAREVVGATTFDYWGQGTLVTVSSGGGGSGGGGSGGGGSGGGGSDIQMTQSPSSLSASVGDRVTITCRASQSISTWLAWYQQKPGKAPKLLIYAASSLQSGVPSRFSGSGSGTDFTLTISSLQPEDFATYYCQQANAFPPTFGQGTRLEIK
For B8, the binding result in test [5], in test [6] and in test [7] was “binds” each time.

B9: MAdCAM antibody Table 1 clone 65 (scFv)
scFv: QVQLVQSGAEVKKPGASVKVSCKASGYTFTRHWIHWVRQAPGQGLEWMGWINVKTGGAGYAQKFQGRVTMTRDTSTSTVYMELSSLRSEDTAVYYCARESSGWYGTDVWGQGTTVTVSSGGGGSGGGGSGGGGSGGGGSDIQMTQSPSSLSASVGDRATITCRASQSISNYLAWYQQKPGKAPKLLIYAASSLQSGVPSRFSGSGSGTDFTLTISSLQPEDFATYYCQQSNSFPLTFGGGTKVEIK
B9: the binding result in test [5], in test [6] and in test [7] was “binds” throughout.

B10: MAdCAM Antibody Table 2 clone 75 (antibody, V domains shown)
VH: EVQLLESGGGLVQPGGSLRLSCAASGFTFSDFWMHWVRQAPGKGLEWISYISGDSGYTNYADSVKGRFTISRDNSKNTLYLQMNSLRAEDTAVYYCARDRPYYYYMDVWGKGTTVTVSS
VL: DIQMTQSPSSLSASVGDRVTITCRASQSVSRSLAWYQQKPGKAPKLLIYAASSLQSGVPSRFSGSGSGTDFTLTISSLQPEDFATYYCQQYKSYPVTFGQGTKVEIK
notes: IgG format
Turning to B10, the binding result in test [1], in test [2], in test [3] and in test [4] was “binds” throughout.

B11: MAdCAM Antibody Table 2 clone 74 (antibody, V domains shown)
VH: QVQLVQSGAEVKKPGASVKVSCKASGYTFTGYYMHWVRQAPGQGLEWMGIINPSGGNTKYAQKFQGRVTMTRDTSTSTVYMELSSLRSEDTAVYYCTTADYYYYMDVWGKGTTVTVSS
VL: DIQMTQSPSSLSASVGDRVTITCRASQGISNYLAWYQQKPGKAPKLLIYAASSLQSGVPSRFSGSGSGTDFTLTISSLQPEDFATYYCQQYYSNADFGQGTKVEIK
notes: IgG format
B11: the binding result is “no binding” in test [1], “binds” in test [2], “no binding” in test [3] and “binds” in test [4].

B12: MAdCAM Antibody Table 2 clone 46 (antibody, V domains shown)
VH: EVQLLESGGGLVQPGGSLRLSCAASGFSFSSYTMNWVRQAPGKGLEWVSFITSSSRTIYYADSVKGRFTISRDNSKNTLYLQMNSLRAEDTAVYYCARDRRGDYGDSWYFDLWGRGTLVTVSS
VL: EIVMTQSPATLSVSPGERATLSCRASQSVRNYLAWYQQKPGQAPRLLIYGASTRATGIPARFSGSGSGTEFTLTISSLQSEDFAVYYCQQYGSSPLTFGGGTKVEIK
notes: IgG format
Take B12: the binding result in test [1] is given as “no binding”; in test [2] it was “binds”; in test [3] it was “no binding”; in test [4], “binds”.

The values above are taken from patent US20230235004A1 (published 2023).
